# B1: P450PMO: P450 BM-3 variant, SEQ ID NO:125; 7-7 plus G443A and D698G; propane monooxygenase (protein)
# chain: TIKEMPQPKTFGELKNLPLLNTDKPVQALMKIADELGEIFKFEAPGCVTRYISSQRLIKEACDESRFDKNLSQELKFFRDFGGDGLFTSWTHEINWKKAHNILLPSFSQQAMKGYHAMMVDIAVQLVQKWERLNADEHIEVSEDMTRLTLDTIGLCGFNYRFNSFYRDQPHPFIISMVRALDEVMNKPQRANPDDPAYDENKRQCQEDIKVMNDLVDKIIADRKARGEQSDDLLTQMLNGKDPETGEPLDDGNISYQIITFLIAGHETTSGLLSFALYFLVKNPHVLQKVVEEAARVLVDPVPSYKQVKQLKYVGMVLNEALRLWPTFPAFSLYAKEDTVLGGEYPLEKGDEVMVLIPQLHRDKTVWGDDVEEFRPERFENPSAIPQHAFKPFGNGQRACIGQQFALHEATLVLGMMLKHFDFEDHTNYELDIKETLTLKPEAFVVKAKSKKIPLGGIPSPSTGQSAKKVRKKAENAHNTPLLVLYGSNMGTAEGTARDLADIAMSKGFAPQVATLDSHAGNLPREGAVLIVTASYNGHPPDNAKQFVDWLDQASADEVKGVRYSVFGCGDKNWATTYQKVPAFIDETLAAKGAENIADRGEADASDDFEGTYEEWREHMWSDVAAYFNLDIENSEDNKSTLSLQFVDSAADMPLAKMHGAFSTNVVASKELQQPGSARSTRHLEIELPKEASYQEGGHLGVIPRNYEGTVNRVTARFGLDASQQIRLEAEEEKLAHLPLAKTVSVEELLQYVELQDPVTRTQLRAMAAKTVCPPHKVELEALLEKQAYKEQVLAKRLTMLELLEKYPACEMKFSEFIALLPSIRPRYYSISSSPRVDEKQASITVSVVSGEAWSGYGEYKGIASNYLAELQEGDTITCFISTPQSEFTLPKDPETPLIMVGPGTGVAPFRGFVQARKQLKEQGQSLGEAHLYFGCRSPHEDYLYQEELENAQSEGIITLHTAFSRMPNQPKTYVQHVMEQDGKKLIELLDQGAHFYICGDGSQMAPAVEATLMKSYADVHQVSEADARLWLQQLEEKGRYAKDVWAG
# modifications: Mutant P450PMO protein sequence
# notes: 7-7 plus G443A and D698G; propane monooxygenase
# Assays:
# Type in all cases: biochemical
# [1] = Kinetic constants for n-alkanes: heptane; conditions: N.m = not measurable
# Procedure: Rate measurements. Initial rates of product formation were determined at 25° C. in 100 mM KPi pH 8.0 buffer using purified protein (100 nM) and a substrate concentration of 1.6 mM. In a 5 mL-vial, 20 μL of alkane solution (in ethanol) were dissolved in 400 μL KPi buffer, to which 500 μL enzyme solution at 100-200 nM was added. Reaction was initiated by adding 100 μL of 5 mM NADPH solution, followed by stirring at 300 rpm for 1 minute, and quenched by adding 200 μL chloroform and stirring at 800 rpm for 10 sec. Solutions were transferred to an Eppendorf tube, to which internal standard (10 μL 25 mM 1-bromohexane in ethanol) was added. Tubes were vortexed for 10 sec and centrifuged for 30 sec at 10,000 g. Organic phase was removed and analyzed by GC. For propane, reactions were carried out in a 5 mL-scale using 100-400 nM purified enzyme, propane-saturated buffer (propane concentration≈1.6 mM) and a final NADPH concentration of 500 μM. Reactions were stopped by addition of 200 μL H2SO4 conc. and analyzed by derivatization to alkyl nitrites followed by GC-ECD analysis as described below.
# (§1) Products from alkane reactions were identified and quantified by gas chromatography using authentic standards and calibration curves with internal standards. For the reactions with alkanes from pentane to decane, GC analyses were carried out using a Shimadzu GC-17A gas chromatograph, Agilent HP5 column (30 m×0.32 mm×0.1 μm film), 1 μL injection, FID detector, and the following separation program: 250° C. inlet, 250° C. detector, 50° C. oven for 3 min, 5° C./min gradient to 100° C., 25° C./min gradient to 230° C., and 230° C. for 3 min. For butane and propane (TTN) reactions, GC analyses were carried out using a Hewlett-Packard 5890 Series II Plus gas chromatograph, Supelco SPB-1 column (60 m×0.52 mm×0.5 μm film), 0.5 μL injection, FID detector, and the following separation program: 250° C. inlet, 275° C. detector, 80° C. oven for 2 min, 10° C./min gradient to 110° C., 25° C./min gradient to 275° C., and 275° C. for 2.5 min. For ethane and propane (rate) reactions, analysis of reaction mixtures was carried out by derivatization to alkyl nitrites followed by GC-ECD analysis. For laurate, reaction product analysis was carried out by derivatization with N-methyl-N-trimethylsilylheptafluorobutyramide followed by extraction with hexane. Organic solutions were analyzed by FID-GC.
# To further investigate the evolution of substrate specificity, kinetic constants for the C5 to C8 alkanes were determined from Michaelis-Menten plots (Table 19). The preference of 35E11 and its evolutionary predecessors for medium-chain alkanes is indicated by their high C8/C5 specificities ((kcat/Km)8/(kcat/Km)5˜100), where Km appears to be the major contributing factor. C8/C5 specificity decreases to ˜5 in the immediate precursors of P450PMO and then switches altogether to the smaller alkane, becoming 0.4 in P450PMO. In P450PMO, catalytic efficiency is highest on propane and decreases along the alkane series, driven by decreasing kcat.
# [2] = Reactions on alkanes, total turnovers (Table 18): heptane; conditions: heptane (7 C atoms)
# Procedure: (§2) Reactions on alkanes. Reactions with alkanes from pentane to decane were carried out at 3 mL-scale using 100 mM KPi pH 8.0 buffer containing 2% ethanol (to allow alkane solubilization) and purified protein. 2.5 mL KPi buffer were added with 60 μL of 90 mM alkane solution in ethanol (final conc.=1.8 mM), 150 μL enzyme solution at 1 μM (final conc.=50 nM), and 300 μL NADPH regeneration solution (100 units/mL isocitrate dehydrogenase, 70 mg/mL isocitrate, 1.5 mg/ml NADP^+). Vials were sealed and stirred for 24 hours at 4° C. 1 mL-aliquot of the reaction was removed, added with 10 μl internal standard (25 mM 1-bromohexane in ethanol), and extracted with 200 μl chloroform (30 sec vortexing, 1 min centrifugation at 10000 g). The organic phase was removed and analyzed by gas chromatography. Reactions with ethane, propane, and butane were carried out as described for longer alkanes with the only difference that alkane-saturated KPi buffer was used. Propane reactions with variants from HL5 and L9 libraries were performed on 1 mL-scale reaction using 20 nM enzyme to reduce oxygen limitation. Propane and butane reactions were analyzed by direct injection of reaction solution on the GC using 1-pentanol as internal standard. Ethane reaction products were functionalized (see below) and analyzed by GC using 1-butanol as internal standard. All measurements were performed in triplicate.
# as §1
# (§3) TTNs for each variant-substrate pair were determined using standardized reaction conditions (identical enzyme and substrate concentration, incubation time, cofactor regeneration system) (Table 18). TTN values were used to assess performance because TTN is a cumulative measure of both catalytic and coupling efficiency and because mutants were selected based on improvement in this property. To facilitate comparison among the variants, TTNs were normalized to the highest value in the series (MTN=Maximal Turnover Number) and plotted for the increasing-sized substrates (FIG. 38). A gradual shift of the enzyme's substrate preference during laboratory evolution is evident from these profiles. The marginal activity of wild-type BM3 on these substrates (MTN=150) is restricted to the long-chain alkanes, where it is a promiscuous function of BM3's high C12-C20 fatty acid hydroxylase activity. In the first evolutionary intermediates, substrate preference centers on medium-chain alkanes […], reflecting their selection for activity on octane. In 35E11, selected for activity on propane, preference still centers on C6-C8 alkanes but now extends towards the shorter ones, including propane. Propane activity becomes prevalent with the transition from variant ETS8 to 19A12. […]
# [3] = Reactions on alkanes, total turnovers (Table 18): octane; conditions: octane (8 C atoms)
# Procedure: as §2, §1, §3
# [4] = Reactions on alkanes, total turnovers (Table 18): hexane; conditions: hexane (6 C atoms)
# Procedure: as §2, §1, §3
# [5] = Reactions on alkanes, total turnovers (Table 18): butane
# Procedure: as §2, §1, §3
# [6] = Reactions on alkanes, total turnovers (Table 18): ethane; conditions: ethane (2 C atoms)
# Procedure: as §2, §1, §3
# [7] = TTN normalized to the highest value of the variant's series
# [8] = total turnovers, standardized reaction conditions
molecule,measurement,setting,value
B1,kcat,[1],0.533 ± 0.083 s⁻¹
same,Km,[1]; read-out: Km,190 ± 40 µM
same,% rel. act.,[2]; [7],14.6%
same,TTN,[2]; [8],2990 ± 165
same,% rel. act.,[3]; [7],9.2%
same,TTN,[3]; [8],1880 ± 60
same,% rel. act.,[4]; [7],12.7%
same,TTN,[4]; [8],2600 ± 205
same,% rel. act.,"[5]; butane (4 C atoms), TTN normalized to the highest value of the variant's series",30.2%
same,TTN,"[5]; butane (4 C atoms), total turnovers, standardized reaction conditions",6200 ± 400
same,drop in activity when a single methylene unit is added to the substrate,[5]; relative to propane,90%
same,% rel. act.,[6]; [7],12.4%
same,TTN,[6]; [8],2550 ± 250

# — patent publication US12258605B2, “Alkane oxidation by modified hydroxylases” (The California Institute of Technology, priority 2005, dated 2025)
